Read-outs that look alike come from different tables or passages of the source.
B1: HER2 antibody 159 (antibody, V domains shown)
VH: EVQLVQSGAEVKKPGESLKISCKGSGYNFTSYWIGWVRQMPGKGLEWMGIIYPGDSDTRYSPSFQGQVTISADKSISTAYLQWSSLKASDTAMYYCARWGTYYDILTGYFNWFDPWGQGTLVTVSS
VL: DIQMTQSPSSLSASVGDRVTITCRASQGISSWLAWYQQKPEKAPKSLIYAASSLQSGVPSRFSGSGSGTDFTLTISSLQPEDFATYYCQQYYIYPWTFGQGTKVEIK
B2: HER2 antibody 127 (antibody, V domains shown)
VH: EVQLVQSGAEVKKPGESLTISCKGSGYSFSIYWIGWVRQMPGKGLEWMGIIFPGDSDIRYSPSFQGQVTISADKSISTAYLQWSSLKASDTAMYYCARQPGDWSPRHWYFDLWGRGTLVTVSS
VL: VIWMTQSPSLLSASTGDRVTISCRMSQGISSYLAWYQQKPGKAPELLIYAASTLQSGVPSRFSGSGSGTDFTLTISYLQSEDFATYYCQQYYSFPLTFGGGTKVEIK
B3: HER2 antibody 132 (antibody, V domains shown)
VH: QVQLVQSGAEVKKPGASVKVSCKASGYTFTSYGISWVRQAPGQGLEWMGWISAYNGNSNYVQKFQGRVTMTTDTTTSTAYMELRSLTSDDTAVYYCAREYSYDSGTYFYYGMDVWGQGTTVTVSS
VL: EIVLTQSPATLSLSPGERATLSCRASQSVSSYLAWYQQKPGQAPRLLIYDASNRATGIPARFSGSGSGTDFTLTISSLEPEDFAVYYCQQRSNWPMYTFGQGTKLEIK
B4: HER2 antibody 129 (antibody, V domains shown)
VH: QVQLVESGGGVVQPGRSLRLSCAASGFTFSTFAIHWVRQAPGKGLEWVAVISYDGGHKFYADSVKGRFTISRDNSKNTLYLQMNSLRAEDTAMYYCARGLGVWGAFDYWGQGTLVTVSS
VL: EIVLTQSPATLSLSPGERATLSCRASQSVSSYLAWYQQKPGQAPRLLIYDASNRATGIPARFSGSGSGTDFTLTISSLEPEDFAVYYCQQRSNWWTFGQGTKVEIK
B5: HER2 antibody 153 (antibody, V domains shown)
VH: QVQLVESGGGVVQPGRSLRLSCAASGFTFSDYVIHWVRQAPGKGLEWVTVISYDGSNKYYADSVKGRFTISRDNSKNTLYLQMNSLSAEDTAMYYCARGGITGTTGVFDYWGQGTLVTVSS
VL: DIQMTQSPSSLSASVGDRVTITCRASQGISSWLAWYQQKPEKAPKSLIYDASSLQSGVPSRFSGSGYGTDFSLTISSLQPEDFAIYYCQQYKSYPITFGQGTRLEIK
B6: HER2 antibody 025 (antibody, V domains shown)
VH: QVQLQQWGAGLLKPSETLSLTCAVYGGSFSDYYWNWIRQPPGKGLEWIGEIHHSGSTNYNPSLKSRVTISVDTSKNQFSLKLSSVTAADTAVYYCARGYYDSGVYYFDYWAQGTLVTVSS
VL: DIQMTQSPSSLSASVGDRVTITCRASQGISRWLAWYQQKPEKAPKSLIYAASSLRSGVPSRFSGSGSGTDFTLTISSLQPEDFATYYCQQYNSYPITFGQGTRLEIK
notes: also called HuMab-025; PC1014-025
B7: HER2 antibody 098 (antibody, V domains shown)
VH: EVQLLESGGGLVQPGGSLRLSCAASGFTFSNYGMSWVRQAPGKGLEWVSAISGSAYSTYYADSVKGRFTISRDNSKNTLWLQMNSLRAEDTAVYYCAKAHYHGSGSYYTLFDYWGQGTLVTVSS
VL: DIQMTQSPSSLSASVGDRVTITCRASQGISSWLAWYQQKPEKAPKSLIYAASSLQSGVPSRFSGSGSGTDFTLTISSLQPEDFATYYCQQYNSYPYTFGQGTKLEIK
notes: also called PC1014-098; TH1014-098
B8: HER2 antibody 084 (antibody, V domains shown)
VH: QVQLVQSGAEVKKPGSSVKVSCKASGGTFRTYAINWVRQAPGQGLEWMGRINTVLGIVNHAQKFQGRVTITADKSTNTAYMELNSLRSEDTAVYYCAREKGVDYYYGIEVWGQGTTVTVSS
VL: DIQMTQSPSSVSASVGDRVTITCRASQGISSWLAWYQHKPGKAPKLLIYVASTLQSGVPSRFSGSGSGTDFTLTISSLQPEDFATYYCQQANSFPLTFGGGTKVEIK
B9: HER2 antibody 050 (antibody, V domains shown)
VH: EVQLLESGGGLVQPGGSLRLSCAASGFTFSSYAMNWVRQAPGKGLEWVSAISGRGGTTYYADSVKGRFTISRDNSKNTLYLQMSSLRAEDTAVYYCAKARANWDYFDYWGQGTLVTVSS
VL: DIQMTQSPSSVSASVGDRVTITCRASQGISSWLAWYQHKPGKAPKLLIYAASILQSGVPSRFSGSGSGTDFTLTISSLQPEDFATYYCQQANSFPITFGQGTRLEIK
B10: HER2 antibody 091 (antibody, V domains shown)
VH: QVQLQQWGAGLLKPSETLSLTCAVSGGSFSGYYWTWIRQPPGKGLEWIGEIYHSGDTNYNPSLKSRVTISVDTSKNQFSLKLYSVTAADTAVYYCARLYFGSGIYYLDYWGQGTLVTVSS
VL: DIQMTQSPSSLSASVGDRVTITCRASQGISSWLVWYQQKPEKAPKSLIYAASSLQSGVPSRFSGSGSGTDFTLTISSLQPEDFATYYCQQYNSFPPTFGQGTKVEIK
B11: HER2 antibody 169 (antibody, V domains shown)
VH: QVQLVQSGAEVKKPGASVKVSCKASGYTFTNYGISWVRQAPGQGLEWMGWLSAYSGNTIYAQKLQGRVTMTTDTSTTTAYMELRSLRSDDTAVYYCARDRIVVRPDYFDYWGQGTLVTVSS
VL: EIVLTQSPATLSLSPGERATLSCRASQSVSSYLAWYQQKPGQAPRLLIYDASNRATGIPARFSGSGSGTDFTLTISSLEPEDFAVYYCQQRSNWPRTFGQGTKVEIK
B12: HER2 antibody 111 (antibody, V domains shown)
VH: QVQLVQSGAEVKKPGSSVKVSCKASGGTFSSYGISWVRQAPGPGLEWMGRIIPILGIANYAQKFQGRVTITADKSTNTAYMELSSLRSEDTAVYYCARDQEYSSNWYYWGQGTLVTVSS
VL: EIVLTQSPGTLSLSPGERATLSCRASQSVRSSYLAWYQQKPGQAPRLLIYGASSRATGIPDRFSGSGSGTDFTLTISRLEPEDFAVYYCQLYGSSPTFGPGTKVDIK
B13: HER2 antibody 005 (antibody, human IgG1, V domains shown)
VH: EVQLVQSGAEVKKPGESLKISCKASGYSFHFYWIGWVRQMPGKGLEWMGSIYPGDSDTRYRPSFQGQVTISADKSISTAYLQWTSLKASDTAIYYCARQRGDYYYFYGMDVWGQGTTVTVSS
VL: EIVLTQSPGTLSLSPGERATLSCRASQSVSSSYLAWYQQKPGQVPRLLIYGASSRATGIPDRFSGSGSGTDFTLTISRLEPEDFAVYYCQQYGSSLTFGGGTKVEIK
notes: human IgG1,κ; also called HuMab 005; PC1014-005
B14: HER2 antibody 059 (antibody, V domains shown)
VH: QVQLVQSGAEVKKPGASVRVPCKASGYTFTRYGISWVRQAPGQGLEWMGWISAYNGKTYYAQKLQGRVTMTTDTSTSTAYMELRSLRSDDTAVYYCARSPLLWFEELYFDYWGQGTLVTVSS
VL: EIVLTQSPGTLSLSPGERATLSCRASQSVSSTYLAWYQQKPGQAPRLLIYGASSRATGIPDRFSGSGSGTDFTLTISRLEPEDFAVYYCQQYGTSLFTFGPGTKVDIK
B15: HER2 antibody 060 (antibody, V domains shown)
VH: EVQLVQSGAEVKKPGESLKISCKGSGYRFTSYWIGWVRQMPGKGLEWMGSIYPGDSYTRNSPSFQGQVTISADKSIATAYLQWNSLKASDTAMYYCARHAGDFYYFDGLDVWGQGTTVTVSS
VL: not shown
B16: HER2 antibody 106 (antibody, V domains shown)
VH: EVQLVQSGAEVKKPGESLKISCKGSGYSFTRYWIGWVRQMPGKGLEWMGIIYPGDSDTRYSPSFQGQVTISADKSISTAYLQWSSLKASDTAMYYCARLTGDRGFDYYSGMDVWGQGTTVTVSS
VL: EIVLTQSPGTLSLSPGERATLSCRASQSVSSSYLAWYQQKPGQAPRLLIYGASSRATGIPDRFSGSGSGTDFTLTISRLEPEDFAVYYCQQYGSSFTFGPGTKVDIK

Tests used:
[1] = target: T1, human epidermal growth factor receptor 2 (HER2) (human, UniProt P04626 23-1255); assay: cell-based or functional assay
[2] = target: T1, human epidermal growth factor receptor …; assay: cell-based or functional assay; remark: listed apart in the source
[3] = target: T1, human epidermal growth factor receptor …; assay: flow cytometry on A431 cells
[4] = target: T1, human epidermal growth factor receptor …; assay: flow cytometry on AU565 cells
[5] = target: T1, human epidermal growth factor receptor …; assay: cell-based or functional assay; remark: listed apart in the source
[6] = target: T1, human epidermal growth factor receptor …; assay: cell-based or functional assay; remark: listed apart in the source
[7] = target: T1, human epidermal growth factor receptor …; assay: cell-based or functional assay; remark: listed apart in the source

Binder	% cells killed (maximal), AU565 cells, anti-kappa-ETA'-conjugated antibody [1]	EC50 of AU565 cell kill, anti-kappa-ETA'-conjugated antibody [1]	% cells killed (maximal), A431 cells, anti-kappa-ETA'-conjugated antibody [2]	EC50 of A431 cell kill, anti-kappa-ETA'-conjugated antibody [2]	% cells killed (maximal), AU565 cells, anti-kappa-ETA'-conjugated antibody [6]	EC50 of AU565 cell kill, anti-kappa-ETA'-conjugated antibody [6]	also measured
B1	70.3%	0.0349 µg/mL	–	–	–	–	–
B2	69%	0.0345 µg/mL	–	–	–	–	–
B3	61.6%	0.0394 µg/mL	–	–	–	–	–
B4	60.8%	0.0309 µg/mL	75.9%	~0.0106 µg/mL	–	–	–
B5	60.3%	0.0323 µg/mL	82.4%	~0.0101 µg/mL	–	–	–
B6	60%	0.0167 µg/mL	86.7%	~0.00977 µg/mL	–	–	binding result [3]: binds
B7	58.7%	0.0121 µg/mL	87.2%	0.00165 µg/mL	–	–	EC50 [4]: 0.336 µg/mL; EC50 [3]: 0.068 µg/mL
B8	58.1%	0.027 µg/mL	50.5%	–	–	–	–
B9	52.4%	0.0127 µg/mL	–	–	–	–	–
B10	50.6%	0.0465 µg/mL	83.3%	~0.00986 µg/mL	–	–	–
B11	49.9%	0.0356 µg/mL	34%	–	–	–	–
B12	–	–	–	–	72%	0.0242 µg/mL	EC50 of A431 cell kill, anti-kappa-ETA'-conjugated antibody [5]: ~0.01 µg/mL
B13	–	–	–	–	69.7%	0.0151 µg/mL	binding result [3]: binds; EC50 of A431 cell kill, anti-kappa-ETA'-conjugated antibody [7]: ~0.0101 µg/mL
B14	–	–	–	–	67%	0.0677 µg/mL	–
B15	–	–	–	–	64.3%	0.0794 µg/mL	EC50 of A431 cell kill, anti-kappa-ETA'-conjugated antibody [7]: ~0.01 µg/mL
B16	–	–	–	–	59.1%	0.108 µg/mL	–

From patent EP4520771A2 (Genmab A/S, dated 2025)
